Results: paper PMC3040777, “Purification and Characterization of the RecA Protein from Neisseria gonorrhoeae”

What was measured:
SSBEc = SSBEc (Escherichia coli, UniProt P0AGE0 1-178); test: EMSA; 50 uM nucleotides ssDNA; SSB 10 nM-10 uM; fully bound at 1/10 SSB; affinity similar to SSBNg; EMSA: 20 mM Tris-Cl 39% cation (pH 8.3), 0.5 M NaCl, 1 mM EDTA, 50% glycerol, 10 min at 37 C; 4% native PAGE at 4 C; conditions: protein: recombinant; chain copies: 4; label: 5'-6FAM; single strand
SSBNg = biological target: T1, SSBNg (Neisseria gonorrhoeae, UniProt Q5F7Y0 1-174); test: EMSA; 50 uM nucleotides ssDNA; SSB 10 nM-10 uM; fully bound at 1/10 SSB; affinity similar to SSBEc; EMSA: 20 mM Tris-Cl 39% cation (pH 8.3), 0.5 M NaCl, 1 mM EDTA, 50% glycerol, 10 min at 37 C; 4% native PAGE at 4 C; conditions: protein: recombinant; tags: none stated (pET21a, native purification); chain copies: 4; label: 5'-6FAM; single strand
T1 sequence: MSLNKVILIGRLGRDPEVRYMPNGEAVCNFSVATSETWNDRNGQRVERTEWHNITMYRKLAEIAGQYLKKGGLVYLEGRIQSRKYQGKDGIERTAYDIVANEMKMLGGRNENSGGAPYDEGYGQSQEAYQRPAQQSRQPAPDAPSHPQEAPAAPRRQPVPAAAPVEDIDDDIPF

Chain of SSBEc (P0AGE0 whole entry): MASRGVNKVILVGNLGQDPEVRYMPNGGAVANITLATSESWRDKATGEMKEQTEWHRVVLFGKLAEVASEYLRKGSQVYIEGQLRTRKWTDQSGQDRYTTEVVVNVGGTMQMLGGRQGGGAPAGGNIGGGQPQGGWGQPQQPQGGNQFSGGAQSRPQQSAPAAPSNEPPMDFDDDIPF

TGCCTCGCGGTAGCTCTTCTCGGAGCGCACGATTCGCACTGCTGATGTTC (ssDNA) [OCN324 50-mer]: binds (SSBEc); binds (SSBNg).
